Laboratory results reported in patent EP4684807A1, “LINKER AND USE THEREOF IN LIGAND DRUG CONJUGATE” (priority 2023, dated 2024).

T1: ADAM9 on ADAM9-positive cells (Calu-3, Ls174T) (UniProt Q13443 29-819, limits assumed)
T1 sequence (looked up): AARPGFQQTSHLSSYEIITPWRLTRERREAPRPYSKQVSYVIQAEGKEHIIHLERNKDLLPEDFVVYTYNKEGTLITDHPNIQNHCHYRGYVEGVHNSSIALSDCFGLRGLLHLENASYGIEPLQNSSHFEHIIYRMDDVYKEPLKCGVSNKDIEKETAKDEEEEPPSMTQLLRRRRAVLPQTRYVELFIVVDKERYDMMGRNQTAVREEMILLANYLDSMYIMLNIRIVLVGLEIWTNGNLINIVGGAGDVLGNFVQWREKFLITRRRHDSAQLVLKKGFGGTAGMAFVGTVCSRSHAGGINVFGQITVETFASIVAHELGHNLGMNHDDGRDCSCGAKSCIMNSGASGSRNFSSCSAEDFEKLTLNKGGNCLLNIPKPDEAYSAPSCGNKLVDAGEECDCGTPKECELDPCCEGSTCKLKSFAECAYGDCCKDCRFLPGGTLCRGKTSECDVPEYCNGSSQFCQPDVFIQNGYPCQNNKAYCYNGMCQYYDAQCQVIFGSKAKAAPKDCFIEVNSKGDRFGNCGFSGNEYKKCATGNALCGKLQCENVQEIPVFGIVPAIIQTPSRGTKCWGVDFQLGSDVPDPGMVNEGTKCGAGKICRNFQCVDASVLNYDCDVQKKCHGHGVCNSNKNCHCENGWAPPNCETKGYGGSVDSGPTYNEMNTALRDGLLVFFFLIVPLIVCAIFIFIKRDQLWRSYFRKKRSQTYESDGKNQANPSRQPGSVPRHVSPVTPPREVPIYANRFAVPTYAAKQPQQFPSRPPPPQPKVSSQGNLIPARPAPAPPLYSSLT

B1: ADC-3D-1 (Reference ADC-22C) (antibody, human IgG1, kappa, V domains shown)
VH: QVQLQQPGTEVVKPGASVKLSCKASGFTFPLYWMHWVRQRPGRGLEWIGRIIPIFGHTKYNEKFKNKATLTADESSSTAYMELRSLTSDDSAVYYCARGGYYYYPREGFLDYWGQGTSVTVSS
VL: DIVMTQSPASLSVSPGERASISCRSSQSVDYSGDSYMNWYQQKPGQSPRLLIYAASDRESGVPDRFSGSGSGTDFTLKISRVEEEDAGTYYCQQSREDPFTFGQGTKVDIKR
modifications: control linker-payload conjugated to antibody thiols after TCEP reduction; DAR (k) 7.5 for the whole antibody
B2: ADC-2D-1 (Reference ADC-20C) (antibody, human IgG1, kappa, V domains shown)
VH: B1 VH
VL: B1 VL
modifications: control linker-payload conjugated to antibody thiols after TCEP reduction; DAR (k) 4.3 for the whole antibody
B3: ADC-1D-1 (Reference ADC-20C) (antibody, human IgG1, kappa, V domains shown)
VH: B1 VH
VL: B1 VL
modifications: control linker-payload conjugated to antibody thiols after TCEP reduction; DAR (k) 4.4 for the whole antibody
B4: ADC-4D-1 (Reference ADC-22C) (antibody, human IgG1, kappa, V domains shown)
VH: B1 VH
VL: B1 VL
modifications: control linker-payload conjugated to antibody thiols after TCEP reduction; DAR (k) 7.6 for the whole antibody

Target: T1, ADAM9 on ADAM9-positive cells (Calu-3, …)
Assay: cell-based or functional assay

| Binder | IC50 (nM), inhibition of cell proliferation, Calu-3 cells, CellTiter-Glo, 6 days [nM] | IC50 (nM), inhibition of cell proliferation, Ls174T cells, CellTiter-Glo, 6 days [nM] |
| --- | --- | --- |
| B1 | 0.34 | – |
| B2 | – | 27.1 |
| B3 | – | 15.3 |
| B4 | 0.78 | – |
